# Results: patent US20200209227A1 (published 2020)
# T1: Rh5 (UniProt Q8IFM5 25-526)
# T1 sequence: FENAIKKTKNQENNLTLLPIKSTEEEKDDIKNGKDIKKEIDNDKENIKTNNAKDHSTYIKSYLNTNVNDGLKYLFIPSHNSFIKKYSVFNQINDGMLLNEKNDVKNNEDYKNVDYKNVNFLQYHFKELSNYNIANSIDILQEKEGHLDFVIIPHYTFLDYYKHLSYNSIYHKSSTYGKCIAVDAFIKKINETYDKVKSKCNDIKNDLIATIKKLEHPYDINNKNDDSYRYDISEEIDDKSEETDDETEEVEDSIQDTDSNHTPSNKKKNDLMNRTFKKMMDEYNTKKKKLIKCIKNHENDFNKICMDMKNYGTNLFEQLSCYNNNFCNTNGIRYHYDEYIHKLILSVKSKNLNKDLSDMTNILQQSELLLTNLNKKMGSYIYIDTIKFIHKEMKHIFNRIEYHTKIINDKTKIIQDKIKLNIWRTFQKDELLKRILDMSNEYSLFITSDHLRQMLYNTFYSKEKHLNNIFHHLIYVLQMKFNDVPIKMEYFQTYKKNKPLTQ
# B1: Basigin (receptor)
# chain: AAGTVFTTVEDLGSKILLTCSLNDSATEVTGHRWLKGGVVLKEDALPGQKTEFKVDSDDQWGEYSCVFLPEPMGTANIQLHGPPRVKAVKSSEHINEGETAMLVCKSESVPPVTDWAWYKITDSEDKALMNGSESRFFVSSSQGRSELHIENLNMEADPGQYRCNGTSSKGSDQAIITLRVRSH
# notes: If it applies, basigin was whole, on human erythrocytes
# Target: T1, Rh5
# Test: BSI, free solution, label-free
binder,measurement,value
B1,Kd,1080 nM
